Results as given in IntAct's records for PubMed 26853155.

B1: Syncytin-2 (Homo sapiens), P60508 (parent)
chain: MGLLLLVLILTPSLAAYRHPDFPLLEKAQQLLQSTGSPYSTNCWLCTSSSTETPGTAYPASPREWTSIEAELHISYRWDPNLKGLMRPANSLLSTVKQDFPDIRQKPPIFGPIFTNINLMGIAPICVMAKRKNGTNVGTLPSTVCNVTFTVDSNQQTYQTYTHNQFRHQPRFPKPPNITFPQGTLLDKSSRFCQGRPSSCSTRNFWFRPADYNQCLQISNLSSTAEWVLLDQTRNSLFWENKTKGANQSQTPCVQVLAGMTIATSYLGISAVSEFFGTSLTPLFHFHISTCLKTQGAFYICGQSIHQCLPSNWTGTCTIGYVTPDIFIAPGNLSLPIPIYGNSPLPRVRRAIHFIPLLAGLGILAGTGTGIAGITKASLTYSQLSKEIANNIDTMAKALTTMQEQIDSLAAVVLQNRRGLDMLTAAQGGICLALDEKCCFWVNQSGKVQDNIRQLLNQASSLRERATQGWLNWEGTWKWFSWVLPLTGPLVSLLLLLLFGPCLLNLITQFVSSRLQAIKLQTNLSAGRHPRNIQESPF
partner: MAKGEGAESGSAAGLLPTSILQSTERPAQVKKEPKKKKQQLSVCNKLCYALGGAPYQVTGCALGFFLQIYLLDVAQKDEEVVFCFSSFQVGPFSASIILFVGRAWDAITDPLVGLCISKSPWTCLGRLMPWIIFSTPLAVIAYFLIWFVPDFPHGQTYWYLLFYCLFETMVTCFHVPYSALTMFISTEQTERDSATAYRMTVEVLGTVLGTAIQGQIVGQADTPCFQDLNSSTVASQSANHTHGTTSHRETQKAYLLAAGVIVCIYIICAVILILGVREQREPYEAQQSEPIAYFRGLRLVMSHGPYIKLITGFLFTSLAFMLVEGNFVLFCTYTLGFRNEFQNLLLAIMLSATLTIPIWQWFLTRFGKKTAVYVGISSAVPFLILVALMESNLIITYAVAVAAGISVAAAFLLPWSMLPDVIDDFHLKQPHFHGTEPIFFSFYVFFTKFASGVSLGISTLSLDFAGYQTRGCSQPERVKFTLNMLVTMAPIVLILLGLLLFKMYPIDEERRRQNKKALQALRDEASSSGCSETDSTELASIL

Variants of: B1
Details: with nls1_human MFSD2A

Row | Variant | effect of a mutation on the interaction
1 | V483I | decreasing interaction strength
2 | T367M | disrupting interaction strength
3 | N312Q | decreasing interaction strength
4 | N118S | increasing interaction strength
5 | T522M | decreasing interaction strength
6 | C46R | decreasing interaction strength
7 | N332Q | decreasing interaction strength
8 | R417H | decreasing interaction strength
9 | N443Q | disrupting interaction strength
10 | N133Q | decreasing interaction strength
